Source: patent publication US20080248465A1

Experiments:
[1] = molecular target: human FcγRIIb (human) (UniProt P31994); assay: flow cytometry on FcγRIIb transfectants
[2] = molecular target: human FcγRIIa, H131 allele (human) (UniProt P12318); assay: flow cytometry on FcγRIIa (H131) transfectants
[3] = molecular target: human FcγRIIa, R131 allele (human) (UniProt P12318); assay: flow cytometry on FcγRIIa (R131) transfectants
[4] = molecular target: human FcγRIIb (human) (UniProt P31994); assay: flow cytometry, background staining on EBV-transformed B cells of 2B.1/2B.1 donors
[5] = molecular target: human FcγRIIb (human) (UniProt P31994); assay: flow cytometry, background staining on EBV-transformed B cells of 2B.1/2B.4 donors
[6] = molecular target: human FcγRIIb (human) (UniProt P31994); assay: flow cytometry, background staining on EBV-transformed B cells of a 2B.4/2B.4 donor
[7] = molecular target: human FcγRIIb (human) (UniProt P31994); assay: flow cytometry, background staining on peripheral B lymphocytes of 2B.1/2B.1 donors
[8] = molecular target: human FcγRIIb (human) (UniProt P31994); assay: flow cytometry, background staining on peripheral B lymphocytes of 2B.1/2B.4 donors

Sequence of UniProt P31994 (P31994 43-310): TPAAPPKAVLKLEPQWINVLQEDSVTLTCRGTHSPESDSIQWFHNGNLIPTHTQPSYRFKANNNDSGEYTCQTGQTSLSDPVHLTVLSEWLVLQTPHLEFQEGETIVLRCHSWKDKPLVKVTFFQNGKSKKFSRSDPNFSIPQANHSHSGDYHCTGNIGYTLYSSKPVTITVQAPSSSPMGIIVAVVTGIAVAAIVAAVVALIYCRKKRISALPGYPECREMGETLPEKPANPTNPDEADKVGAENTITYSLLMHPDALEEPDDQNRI

Substance	fold staining against mAb IV.3 [1]	fold difference against mAb IV.3 [2]	fold difference against mAb IV.3 [3]	MFI [4]	MFI [5]	MFI [6]	MFI [7]	MFI [8]
mAb AT-10 (antibody)	10 fold	< 2 fold	< 2 fold	–	–	–	–	–
mIgG1 isotype control (antibody)	–	–	–	3.6 MFI	3.6 MFI	3.9 MFI	4.1 MFI	3.9 MFI
